Measured values published in patent US20230398151A1.
Like-named read-outs stand apart in the source and are kept apart here.

What was measured:
TGFβ1 (R&D systems) [1] = biological target: TGFβ1 (R&D systems) (UniProt P01137); assay: cell-based or functional assay
TGFβ1 (R&D systems) [2] = biological target: TGFβ1 (R&D systems) (UniProt P01137); assay: cell-based or functional assay; remark: listed apart in the source

TGFβ1 (R&D systems), sequence (P01137 279-390 limits assumed): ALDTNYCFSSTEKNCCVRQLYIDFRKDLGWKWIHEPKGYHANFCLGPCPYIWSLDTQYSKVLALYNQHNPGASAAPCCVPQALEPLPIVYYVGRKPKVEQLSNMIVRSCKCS

With “TGFR-Fc (R&D Systems) (from UniProt P37173 24-159) (Fc fusion)” as the substance, how does the IC50 of TGFβ1 activity in HEK-Blue TGFβ cells (TGFβ1 (R&D systems) [1]) read?
The IC50 of TGFβ1 activity in HEK-Blue TGFβ cells was 0.461 nM.

And the IC50 of TGFβ1 activity in HEK-Blue TGFβ cells (TGFβ1 (R&D systems) [2])?
The IC50 of TGFβ1 activity in HEK-Blue TGFβ cells was 0.559 nM.
